Laboratory results from PMC11079029, “Intramolecular autoinhibition regulates the selectivity of PRPF40A tandem WW domains for proline-rich motifs” (Nature Communications, 2024).

B1: SF3A1 (protein, UniProt Q15459 2-793, looked up)
Splicing factor 3A subunit 1: PAGPVQAVPPPPPVPTEPKQPTEEEASSKEDSAPSKPVVGIIYPPPEVRNIVDKTASFVARNGPEFEARIRQNEINNPKFNFLNPNDPYHAYYRHKVSEFKEGKAQEPSAAIPKVMQQQQQTTQQQLPQKVQAQVIQETIVPKEPPPEFEFIADPPSISAFDLDVVKLTAQFVARNGRQFLTQLMQKEQRNYQFDFLRPQHSLFNYFTKLVEQYTKILIPPKGLFSKLKKEAENPREVLDQVCYRVEWAKFQERERKKEEEEKEKERVAYAQIDWHDFVVVETVDFQPNEQGNFPPPTTPEELGARILIQERYEKFGESEEVEMEVESDEEDDKQEKAEEPPSQLDQDTQVQDMDEGSDDEEEGQKVPPPPETPMPPPLPPTPDQVIVRKDYDPKASKPLPPAPAPDEYLVSPITGEKIPASKMQEHMRIGLLDPRWLEQRDRSIREKQSDDEVYAPGLDIESSLKQLAERRTDIFGVEETAIGKKIGEEEIQKPEEKVTWDGHSGSMARTQQAAQANITLQEQIEAIHKAKGLVPEDDTKEKIGPSKPNEIPQQPPPPSSATNIPSSAPPITSVPRPPTMPPPVRTTVVSAVPVMPRPPMASVVRLPPGSVIAPMPPIIHAPRINVVPMPPSAPPIMAPRPPPMIVPTAFVPAPPVAPVPAPAPMPPVHPPPPMEDEPTSKKLKTEDSLMPEEEFLRRNKGPVSIKVQVPNMQDKTEWKLNGQVLVFTLPLTDQVSVIKVKIHEATGMPAGKQKLQYEGIFIKDSNSLAYYNMANGAVIHLALKERGGRKK
B2: SF3A2 (protein, UniProt Q15428 1-464, looked up)
Splicing factor 3A subunit 2: MDFQHRPGGKTGSGGVASSSESNRDRRERLRQLALETIDINKDPYFMKNHLGSYECKLCLTLHNNEGSYLAHTQGKKHQTNLARRAAKEAKEAPAQPAPEKVKVEVKKFVKIGRPGYKVTKQRDSEMGQQSLLFQIDYPEIAEGIMPRHRFMSAYEQRIEPPDRRWQYLLMAAEPYETIAFKVPSREIDKAEGKFWTHWNRETKQFFLQFHFKMEKPPAPPSLPAGPPGVKRPPPPLMNGLPPRPPLPESLPPPPPGGLPLPPMPPTGPAPSGPPGPPQLPPPAPGVHPPAPVVHPPASGVHPPAPGVHPPAPGVHPPAPGVHPPTSGVHPPAPGVHPPAPGVHPPAPGVHPPAPGVHPPAPGVHPPPSAGVHPQAPGVHPAAPAVHPQAPGVHPPAPGMHPQAPGVHPQPPGVHPSAPGVHPQPPGVHPSNPGVHPPTPMPPMLRPPLPSEGPGNIPPPPPTN
B3: DIAPH2 (protein, UniProt O60879 1-1101, looked up)
Protein diaphanous homolog 2: MEQPGAAASGAGGGSEEPGGGRSNKRSAGNRAANEEETKNKPKLNIQIKTLADDVRDRITSFRKSTVKKEKPLIQHPIDSQVAMSEFPAAQPLYDERSLNLSEKEVLDLFEKMMEDMNLNEEKKAPLRNKDFTTKREMVVQYISATAKSGGLKNSKHECTLSSQEYVHELRSGISDEKLLNCLESLRVSLTSNPVSWVNNFGHEGLGLLLDELEKLLDKKQQENIDKKNQYKLIQCLKAFMNNKFGLQRILGDERSLLLLARAIDPKQPNMMTEIVKILSAICIVGEENILDKLLGAITTAAERNNRERFSPIVEGLENQEALQLQVACMQFINALVTSPYELDFRIHLRNEFLRSGLKTMLPDLKEKENDELDIQLKVFDENKEDDLTELSHRLNDIRAEMDDMNEVYHLLYNMLKDTAAENYFLSILQHFLLIRNDYYIRPQYYKIIEECVSQIVLHCSGMDPDFKYRQRLDIDLTHLIDSCVNKAKVEESEQKAAEFSKKFDEEFTARQEAQAELQKRDEKIKELEAEIQQLRTQAQVLSSSSGIPGPPAAPPLPGVGPPPPPPAPPLPGGAPLPPPPPPLPGMMGIPPPPPPPLLFGGPPPPPPLGGVPPPPGISLNLPYGMKQKKMYKPEVSMKRINWSKIEPTELSENCFWLRVKEDKFENPDLFAKLALNFATQIKVQKNAEALEEKKTGPTKKKVKELRILDPKTAQNLSIFLGSYRMPYEDIRNVILEVNEDMLSEALIQNLVKHLPEQKILNELAELKNEYDDLCEPEQFGVVMSSVKMLQPRLSSILFKLTFEEHINNIKPSIIAVTLACEELKKSESFNRLLELVLLVGNYMNSGSRNAQSLGFKINFLCKIRDTKSADQKTTLLHFIADICEEKYRDILKFPEELEHVESASKVSAQILKSNLASMEQQIVHLERDIKKFPQAENQHDKFVEKMTSFTKTAREQYEKLSTMHNNMMKLYENLGEYFIFDSKTVSIEEFFGDLNNFRTLFLEAVRENNKRREMEEKTRRAKLAKEKAEQEKLERQKKKKQLIDINKEGDETGVMDNLLEALQSGAAFRDRRKRIPRNPDNRRVPLERSRSRHNGAISSK
B4: MTREX (protein, UniProt P42285 2-1042, looked up)
Exosome RNA helicase MTR4: ADAFGDELFSVFEGDSTTAAGTKKDKEKDKGKWKGPPGSADKAGKRFDGKLQSESTNNGKNKRDVDFEGTDEPIFGKKPRIEESITEDLSLADLMPRVKVQSVETVEGCTHEVALPAEEDYLPLKPRVGKAAKEYPFILDAFQREAIQCVDNNQSVLVSAHTSAGKTVCAEYAIALALREKQRVIFTSPIKALSNQKYREMYEEFQDVGLMTGDVTINPTASCLVMTTEILRSMLYRGSEVMREVAWVIFDEIHYMRDSERGVVWEETIILLPDNVHYVFLSATIPNARQFAEWICHLHKQPCHVIYTDYRPTPLQHYIFPAGGDGLHLVVDENGDFREDNFNTAMQVLRDAGDLAKGDQKGRKGGTKGPSNVFKIVKMIMERNFQPVIIFSFSKKDCEAYALQMTKLDFNTDEEKKMVEEVFSNAIDCLSDEDKKLPQVEHVLPLLKRGIGIHHGGLLPILKETIEILFSEGLIKALFATETFAMGINMPARTVLFTNARKFDGKDFRWISSGEYIQMSGRAGRRGMDDRGIVILMVDEKMSPTIGKQLLKGSADPLNSAFHLTYNMVLNLLRVEEINPEYMLEKSFYQFQHYRAIPGVVEKVKNSEEQYNKIVIPNEESVVIYYKIRQQLAKLGKEIEEYIHKPKYCLPFLQPGRLVKVKNEGDDFGWGVVVNFSKKSNVKPNSGELDPLYVVEVLLRCSKESLKNSATEAAKPAKPDEKGEMQVVPVLVHLLSAISSVRLYIPKDLRPVDNRQSVLKSIQEVQKRFPDGIPLLDPIDDMGIQDQGLKKVIQKVEAFEHRMYSHPLHNDPNLETVYTLCEKKAQIAIDIKSAKRELKKARTVLQMDELKCRKRVLRRLGFATSSDVIEMKGRVACEISSADELLLTEMMFNGLFNDLSAEQATALLSCFVFQENSSEMPKLTEQLAGPLRQMQECAKRIAKVSAEAKLEIDEETYLSSFKPHLMDVVYTWATGATFAHICKMTDVFEGSIIRCMRRLEELLRQMCQAAKAIGNTELENKFAEGITKIKRDIVFAASLYL
B5: SF3A3 (protein, UniProt Q12874 1-501, looked up)
Splicing factor 3A subunit 3: METILEQQRRYHEEKERLMDVMAKEMLTKKSTLRDQINSDHRTRAMQDRYMEVSGNLRDLYDDKDGLRKEELNAISGPNEFAEFYNRLKQIKEFHRKHPNEICVPMSVEFEELLKARENPSEEAQNLVEFTDEEGYGRYLDLHDCYLKYINLKASEKLDYITYLSIFDQLFDIPKERKNAEYKRYLEMLLEYLQDYTDRVKPLQDQNELFGKIQAEFEKKWENGTFPGWPKETSSALTHAGAHLDLSAFSSWEELASLGLDRLKSALLALGLKCGGTLEERAQRLFSTKGKSLESLDTSLFAKNPKSKGTKRDTERNKDIAFLEAQIYEYVEILGEQRHLTHENVQRKQARTGEEREEEEEEQISESESEDEENEIIYNPKNLPLGWDGKPIPYWLYKLHGLNINYNCEICGNYTYRGPKAFQRHFAEWRHAHGMRCLGIPNTAHFANVTQIEDAVSLWAKLKLQKASERWQPDTEEEYEDSSGNVVNKKTYEDLKRQGLL

system: GFP-tagged PRPF40A-Nter-MUT; assay: SILAC GFP-immunoprecipitation with quantitative mass spectrometry, mutant construct; format: binding, human (Hela cells); conditions: quantitative MS, Hela cells, protein by gene name
Experimental: The PRPF40A N-terminal region (isoform 2, residues 1-221) was PCR-amplified from RPE1 cDNA (ATCC, Cat# CRL-4000) cDNA. The sequence was amplified in two fragments and both fragments were combined by overhang. All PCRs were carried out using Q5 Polymerase (NEB) according to manufacturer’s protocol. The resulting PRPF40A N-terminal region was cloned into a GFP-expressing pcDNA5 vector (see pcDNA5 GFP vector in ref. [28]) using Q5 Site-Directed Mutagenesis Kit (NEB). Nter-MUT, containing the PPVP/PALPP motifs changed to AAAA/AAAAA, was obtained by mutating the N-ter-WW12-containing plasmid with Q5 site-directed mutagenesis. Plasmids were transformed into DH5alpha chemically competent cells. After culturing, DNA isolation was performed with either ZymoPURE Plasmid Miniprep Kit (Zymo Research) or QIAGEN Plasmid Plus Midi Kit (Qiagen). The sequence was confirmed by Sanger Sequencing (GATC Eurofins). All used oligonucleotides are shown in Supplementary Table 6.
Hela cells (ATCC, Cat# CCL-2, RRID:CVCL_0030) were cultured in DMEM SILAC medium (Thermo Fisher) supplemented with 10% filtered FBS (Sigma-Aldrich) and 1% penicillin-streptomycin (Thermo-Fisher). The SILAC medium contains either light (Arg0, Lys0), medium (Arg6, Lys4) or heavy (Arg10, Lys8) isotopes (Cambridge Isotopes Laboratories). Hela cells were cultivated for 14 days in SILAC medium to assure sufficient isotope incorporation. For transfection, 7 × 10^6 Hela cells were seeded in a 15 cm culture dish in 20 ml of respective SILAC medium and grown for 24 h. The cells were then transfected with 20 µg of plasmids expressing either GFP (Control), GFP-tagged N-ext-WW12 or GFP-tagged-N-ext-WW12-MUT utilizing 64 µl FuGENE (Promega) (ratio 1:3.2), according to manufacturer’s protocol.
24 h post-transfection, cells were washed twice in ice-cold PBS and harvested in 1 ml mRIPA buffer (50 mM Tris, 150 mM NaCl, 1 mM EDTA, 1% NP-40, 0.1% Na-deoxycholate), supplemented with 2 µl Turbo-DNase (Thermo Fisher) and 3 µl protease-inhibitor cocktail cOmplete (Sigma-Aldrich). Cell lysates were cleared by centrifugation at 16,000 × g, 4 °C, 15 min and concentration was measured using Pierce BCA Protein Assay kit (Thermo Scientific). The expressed constructs were pulled down by incubating 2.5 mg of lysate with 20 μl GFP-nanobody agarose beads (ChromoTek, GTA-20) for 1 h at 4 °C under constant agitation. Subsequently, beads were washed three times with mRIPA buffer without supplements, then eluted in 1X NuPAGE LDS sample buffer (Thermo Scientific). To detach the proteins from the beads, the eluate was heated to 70 °C for 10 min To evaluate the success of the immunoprecipitation, input (1%) and IP samples were analyzed on a NuPAGE 4–12% Bis-Tris-Acrylamide gel (Thermo Fisher) using NuPAGE MOPS SDS running buffer (Thermo Fisher). Proteins were stained using Sypro Ruby protein gel stain (Thermo Fisher) according to manufacturer’s protocol.
The eluted proteins of three SILAC states (light, medium, heavy) were combined. The proteins were then reduced in DTT, alkylated in iodoacetamide, and purified using the SP3 paramagnetic bead approach. This was followed by overnight enzymatic digestion using trypsin (1 µg per sample) in 50 mM ammonium bicarbonate at 37 °C. The peptide solution was then purified by solid phase extraction in C18 StageTips[99].
Peptides were separated by online reverse phase liquid chromatography using the EASY-nLC 1000 system (Thermo Scientific) in a 30-cm analytical column (inner diameter: 75 μm; heated at 50 °C) packed in-house with ReproSil-Pur 120 C18-AQ 1.9-μm beads (Dr. Maisch GmbH). The gradient separation was performed through a 105-min non-linear gradient of 1.6–32% acetonitrile with 0.1% formic acid at a nanoflow rate of 225 nl/min. The eluted peptides were sprayed directly by electrospray ionization into a Q Exactive Plus Orbitrap mass spectrometer (Thermo Scientific). […]

Molecule	Immunoprecipitation enrichment MUT vs WT, log2 FC
B1	1.381
B2	1.275
B3	1.317
B4	1.198
B5	1.179
